Measurements taken from publication PMC4860257 (Structure (London, England : 1993), 2016).
One block for each binder: values may come before it.

B5: His-tagged talin R7R8R9-3Y (E1794Y/E1797Y/Q1801Y) (domain or fragment, UniProt P26039 1357-1822, looked up)
chain: APGQKECDNALRQLETVRELLENPVQPINDMSYFGCLDSVMENSKVLGEAMTGISQNAKNGNLPEFGDAIATASKALCGFTEAAAQAAYLVGVSDPNSQAGQQGLVEPTQFARANQAIQMACQSLGEPGCTQAQVLSAATIVAKHTSALCNSCRLASARTANPTAKRQFVQSAKEVANSTANLVKTIKALDGDFTEENRAQCRAATAPLLEAVDNLSAFASNPEFSSVPAQISPEGRAAMEPIVISAKTMLESAGGLIQTARALAVNPRDPPRWSVLAGHSRTVSDSIKKLITSMRDKAPGQLECETAIAALNSCLRDLDQASLAAVSQQLAPREGISQEALHTQMLTAVQEISHLIEPLASAARAEASQLGHKVSQMAQYFEPLTLAAVGAASKTLSHPQQMALLDQTKTLAESALQLLYTAKEAGGNPKQAAHTQYALYEAVYMMTEAVEDLTTTLNEAASAAG
B6: His-tagged talin R7R8R9-2Y (E1794Y/E1797Y) (domain or fragment, UniProt P26039 1357-1822, looked up)
chain: APGQKECDNALRQLETVRELLENPVQPINDMSYFGCLDSVMENSKVLGEAMTGISQNAKNGNLPEFGDAIATASKALCGFTEAAAQAAYLVGVSDPNSQAGQQGLVEPTQFARANQAIQMACQSLGEPGCTQAQVLSAATIVAKHTSALCNSCRLASARTANPTAKRQFVQSAKEVANSTANLVKTIKALDGDFTEENRAQCRAATAPLLEAVDNLSAFASNPEFSSVPAQISPEGRAAMEPIVISAKTMLESAGGLIQTARALAVNPRDPPRWSVLAGHSRTVSDSIKKLITSMRDKAPGQLECETAIAALNSCLRDLDQASLAAVSQQLAPREGISQEALHTQMLTAVQEISHLIEPLASAARAEASQLGHKVSQMAQYFEPLTLAAVGAASKTLSHPQQMALLDQTKTLAESALQLLYTAKEAGGNPKQAAHTQYALYEAVQMMTEAVEDLTTTLNEAASAAG

Experiments:
[1] = biological target: His-tagged talin F2F3-K324A (UniProt P26039 196-405, K324A); assay: pull-down
[2] = biological target: His-tagged talin F2F3 domains (residues 196-405), wild type (UniProt P26039 196-405); assay: pull-down
[3] = biological target: His-tagged talin F2F3-K322A (UniProt P26039 196-405, K322A); assay: pull-down
[4] = biological target: His-tagged talin F2F3-KKR (K272A/K274A/R277A) (UniProt P26039 196-405, K272A | K274A | R277A); assay: pull-down
[5] = biological target: His-tagged talin R7R8R9 (residues 1357-1822), wild type (UniProt P26039 1357-1822); assay: pull-down
[6] = biological target: B6; assay: pull-down
[7] = biological target: B5; assay: pull-down
SEC-MALS = biological target: the molecule itself; assay: SEC-MALS
crystal structure = biological target: the molecule itself; assay: crystal structure

B1: GST-tagged talin R9 domain (residues 1655-1822), wild type (domain or fragment, UniProt P26039 1655-1822, looked up)
chain: APGQLECETAIAALNSCLRDLDQASLAAVSQQLAPREGISQEALHTQMLTAVQEISHLIEPLASAARAEASQLGHKVSQMAQYFEPLTLAAVGAASKTLSHPQQMALLDQTKTLAESALQLLYTAKEAGGNPKQAAHTQEALEEAVQMMTEAVEDLTTTLNEAASAAG
binding result [1]: binds
binding result [2]: binds
binding result [3]: binds
binding result [4]: binds

Binder: B5
stoichiometry N (SEC-MALS): 2

Binder: B6
stoichiometry N (SEC-MALS): 2

B7: talin R7R8R9 (residues 1357-1822), wild type, His tag removed, as crystallised (domain or fragment, UniProt P26039 1357-1822, looked up)
chain: APGQKECDNALRQLETVRELLENPVQPINDMSYFGCLDSVMENSKVLGEAMTGISQNAKNGNLPEFGDAIATASKALCGFTEAAAQAAYLVGVSDPNSQAGQQGLVEPTQFARANQAIQMACQSLGEPGCTQAQVLSAATIVAKHTSALCNSCRLASARTANPTAKRQFVQSAKEVANSTANLVKTIKALDGDFTEENRAQCRAATAPLLEAVDNLSAFASNPEFSSVPAQISPEGRAAMEPIVISAKTMLESAGGLIQTARALAVNPRDPPRWSVLAGHSRTVSDSIKKLITSMRDKAPGQLECETAIAALNSCLRDLDQASLAAVSQQLAPREGISQEALHTQMLTAVQEISHLIEPLASAARAEASQLGHKVSQMAQYFEPLTLAAVGAASKTLSHPQQMALLDQTKTLAESALQLLYTAKEAGGNPKQAAHTQEALEEAVQMMTEAVEDLTTTLNEAASAAG
binding result (crystal structure): binds

Next, values leading:

binding result [2]: binds
B2: GST-tagged talin R9-3Y (E1794Y/E1797Y/Q1801Y) (domain or fragment, UniProt P26039 1655-1822, looked up)
chain: APGQLECETAIAALNSCLRDLDQASLAAVSQQLAPREGISQEALHTQMLTAVQEISHLIEPLASAARAEASQLGHKVSQMAQYFEPLTLAAVGAASKTLSHPQQMALLDQTKTLAESALQLLYTAKEAGGNPKQAAHTQYALYEAVYMMTEAVEDLTTTLNEAASAAG

binding result [2]: binds
B3: GST-tagged talin R9-T1812Y (domain or fragment, UniProt P26039 1655-1822, looked up)
chain: APGQLECETAIAALNSCLRDLDQASLAAVSQQLAPREGISQEALHTQMLTAVQEISHLIEPLASAARAEASQLGHKVSQMAQYFEPLTLAAVGAASKTLSHPQQMALLDQTKTLAESALQLLYTAKEAGGNPKQAAHTQEALEEAVQMMTEAVEDLTYTLNEAASAAG

binding result [5]: binds
binding result [6]: binds
binding result [7]: binds
B4: GST-tagged talin F2F3 domains (residues 196-405) (domain or fragment, UniProt P26039 196-405, looked up)
chain: KFFYSDQNVDSRDPVQLNLLYVQARDDILNGSHPVSFDKACEFAGFQCQIQFGPHNEQKHKAGFLDLKDFLPKEYVKQKGERKIFQAHKNCGQMSEIEAKVRYVKLARSLKTYGVSFFLVKEKMKGKNKLVPRLLGITKECVMRVDEKTKEVIQEWSLTNIKRWAASPKSFTLDFGDYQDGYYSVQTTEGEQIAQLIAGYIDIILKKKKS
